Values quoted from earlier work, collected in paper PMC7708053.
pKd: −log10 of the molar value.

Target: T1, hnRNP L (cited Kd) (UniProt P14866)
T1 sequence: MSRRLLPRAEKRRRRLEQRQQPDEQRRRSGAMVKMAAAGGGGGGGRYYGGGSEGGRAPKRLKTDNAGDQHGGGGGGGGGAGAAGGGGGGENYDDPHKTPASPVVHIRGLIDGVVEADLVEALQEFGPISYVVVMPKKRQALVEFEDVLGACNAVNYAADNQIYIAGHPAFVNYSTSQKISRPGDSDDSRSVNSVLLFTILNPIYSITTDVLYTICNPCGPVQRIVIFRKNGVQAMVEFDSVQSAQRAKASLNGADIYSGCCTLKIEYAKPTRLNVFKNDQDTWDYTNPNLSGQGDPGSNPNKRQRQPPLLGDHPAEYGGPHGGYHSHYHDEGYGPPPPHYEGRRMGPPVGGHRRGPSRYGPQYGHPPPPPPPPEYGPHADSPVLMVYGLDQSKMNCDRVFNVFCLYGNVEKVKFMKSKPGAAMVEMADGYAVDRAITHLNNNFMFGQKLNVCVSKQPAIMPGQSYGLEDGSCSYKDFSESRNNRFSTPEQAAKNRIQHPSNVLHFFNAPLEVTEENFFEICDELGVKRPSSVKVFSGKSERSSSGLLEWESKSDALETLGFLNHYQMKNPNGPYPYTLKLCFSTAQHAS
Assay: not stated (cited)
Details: 50 pmol biotinylated RNA on streptavidin beads with HeLa lysate in RIPA (50 mM Tris-Cl pH 7.4, 150 mM NaCl, 5 mM EDTA, 1% NP-40), washed at 300 mM KCl …

In the case of “AUACAUGACACACACACGCA [CA-SELEX#51 20-mer]”, the pKd is given as 8.14.
